1 molecule from PMC5864733 (Nature Communications, 2018) can be followed below.

The target of the test is T1, CesT (residues 1-156), 6xHis-tagged, wild type (enteropathogenic E. coli (EPEC) O127:H6 …, UniProt P21244 1-156).
T1 construct: source: E. coli BL21(DE3), purified (Ni-NTA, gel filtration); not shown: His6, N-terminal, kept
Nature of the test: SPR. The note with it: both partners purified.

T1 sequence (P21244 whole entry, the tested form may be a part): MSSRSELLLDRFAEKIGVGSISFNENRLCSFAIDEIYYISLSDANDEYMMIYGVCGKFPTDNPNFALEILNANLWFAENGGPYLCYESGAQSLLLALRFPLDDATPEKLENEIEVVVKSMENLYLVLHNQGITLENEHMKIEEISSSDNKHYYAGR

B1: CsrA (residues 1-61), GST tag removed (natural protein)
chain: not shown
notes: also called WT CsrA; native CsrA
With B1, the “KD of the first ligand binding site in CsrA (Bivalent-Analyte model)” value was approximately 148 nM.
